Measured values taken from patent publication US10494657B2, “In vitro production of cyclic peptides” (The University Court of the University of Aberdeen, priority 2012, dated 2019).

Tests used:
PatGmac = assay: Macrocyclization of substrate peptides by PatGmac; assay type: biochemical, Prochloron sp.
Description: (§1) For other macrocyclization reactions, 100 μM peptide (e.g. VGAGIGFPAYDG (SEQ ID NO: 68), VGAGIGFPAYRG (SEQ ID NO: 69), or GVAGIGFPAYRG (SEQ ID NO: 84)) was incubated with 20 μM enzyme in a range of buffers for 24 h at 37° C. (see FIGS. 1 to 3).
The VPAPIPFPAYDG (SEQ ID NO: 85) peptide was chosen to match the residues equivalent to P8-P4′, the eight-residue cassette and four C-terminal residue macrocyclization signature.
(§2) PatGmac K598D produced cyclo[VGAGIGFP] with only 8% linear product, at a rate over an order of magnitude faster than wild-type PatGmac with VGAGIGFPAYDG (SEQ ID NO: 68) (FIGS. 2 and 3).

[…] [1] = Macrocyclization reaction, final product ratios by LC-ESI MS ion counts; assay type: biochemical; settings: for Cyclic ion count (%) (M + H = 699) / Linear ion count (%) (M + H = 717) / Unprocessed ion count (%) (M + H = 1123): 100 μM peptide, 50 μM enzyme, 120 h at 37° C.
Description: For macrocyclization reactions comparing final product ratios after substrate depletion, 100 μM peptide (VGAGIGFPAYDG) (SEQ ID NO: 68) was incubated with 50 μM enzyme in 150 mM NaCl, 10 mM HEPES pH 8, 1 mM TCEP for 120 h at 37° C. Samples were analyzed by ESI or MALDI MS (LCT, Micromass or 4800 MALDI TOF/TOF Analyser, ABSciex).
LC-MS was performed using a Phenomenex Sunfire C18 column (4.6 mm×150 mm). Solvent A was H2O containing 0.1% formic acid and solvent B was MeOH containing 0.1% formic acid. Gradient: 0-2 min 10% B; 2-22 min 10% B to 100% B; 22-27 min 100% B; 27-30 min 100% B to 10% B. High resolution mass spectral data were obtained from a Thermo Instruments MS system (LTQ XL/LTQ Orbitrap Discovery) coupled to a Thermo Instruments HPLC system (Accela PDA detector, Accela PDA autosampler and Accela Pump). The following conditions were used: capillary voltage 45 V, capillary temperature 320° C., auxiliary gas flow rate 10-20 arbitrary units, sheath gas flow rate 40-50 arbitrary units, spray voltage 4.5 kV, mass range 100-2000 amu (maximum resolution 30000).
The peptide VGAGIGFPAYDG (SEQ ID NO: 68) was used as a substrate for PatGmac in biochemical assays (FIG. 4C[[c]]). The ratio of macrocyclized to linear product using this substrate peptide was determined by ion counts obtained from liquid chromatography-electrospray ionization mass spectrometry (LC-ESI MS).

[…] [2] = as above; assay type: biochemical
[…] [3] = Macrocyclization of substrate with modified recognition sequence (Asp to Arg); assay type: biochemical
Description: as §1, §2

Chain of PatGmac (as listed by the source): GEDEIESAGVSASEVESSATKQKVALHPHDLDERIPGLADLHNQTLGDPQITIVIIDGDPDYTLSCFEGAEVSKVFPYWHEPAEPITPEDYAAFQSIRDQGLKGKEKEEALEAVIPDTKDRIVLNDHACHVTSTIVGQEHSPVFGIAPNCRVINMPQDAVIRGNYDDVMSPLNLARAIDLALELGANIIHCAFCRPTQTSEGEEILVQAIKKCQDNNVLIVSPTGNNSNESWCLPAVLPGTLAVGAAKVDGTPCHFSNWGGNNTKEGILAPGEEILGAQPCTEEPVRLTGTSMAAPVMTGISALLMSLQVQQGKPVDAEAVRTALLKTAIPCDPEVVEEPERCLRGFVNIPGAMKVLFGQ

Molecule | macrocyclization of the substrate by PatGmac (rate) (PatGmac) | product formed (macrocyclized vs linear) ([…] [1]) | Cyclic ion count (%) (M + H = 699) ([…] [1]) | Linear ion count (%) (M + H = 717) ([…] [1]) | Unprocessed ion count (%) (M + H = 1123) ([…] [1]) | substrate consumption rate relative to native protein ([…] [2]) | ratio of macrocyclized and linear products with VGAGIGFPAYRG ([…] [3]) | reaction rate with VGAGIGFPAYRG ([…] [3]) | linear product ([…] [3])
VGAGIGFPAYRG | an order of magnitude faster than GVAGIGFPAYRG |  |  |  |  |  |  |  | 
VPAPIPFPAYDG [substrate mimic peptide, prolines mimic heterocycles] | can in fact be macrocyclized by PatGmac (albeit slowly) |  |  |  |  |  |  |  | 
PatGmacΔ1 (protein) GEDEIESAGVSASEVESSATKQKVALHPHDLDERIPGLADLHNQTLGDPQITIVIIDGDPDYTLSCFEGAEVSKVFPYWHEPAEPITKDRIVLNDHACHVTSTIVGQEHSPVFGIAPNCRVINMPQDAVIRGNYDDVMSPLNLARAIDLALELGANIIHCAFCRPTQTSEGEEILVQAIKKCQDNNVLIVSPTGNNSNESWCLPAVLPGTLAVGAAKVDGTPCHFSNWGGNNTKEGILAPGEEILGAQPCTEEPVRLTGTSMAAPVMTGISALLMSLQVQQGKPVDAEAVRTALLKTAIPCDPEVVEEPERCLRGFVNIPGAMKVLFGQ |  | only linear VGAGIGFP | 0% | 92% | 8% | approximately the rate of native protein |  |  | 
PatGmacΔ2 (protein) GEDEIESAGVSASEVESSATKQKVALHPHDLDERIPGLADLHNQTLGDPQITIVIIDGDPDYTLSCFEGAEVSKVFPYWHEPAEPILNDHACHVTSTIVGQEHSPVFGIAPNCRVINMPQDAVIRGNYDDVMSPLNLARAIDLALELGANIIHCAFCRPTQTSEGEEILVQAIKKCQDNNVLIVSPTGNNSNESWCLPAVLPGTLAVGAAKVDGTPCHFSNWGGNNTKEGILAPGEEILGAQPCTEEPVRLTGTSMAAPVMTGISALLMSLQVQQGKPVDAEAVRTALLKTAIPCDPEVVEEPERCLRGFVNIPGAMKVLFGQ |  | only linear VGAGIGFP | 0% | >99% | <1% | approximately the rate of native protein |  |  | 
PatGmac K594D (protein) GEDEIESAGVSASEVESSATKQKVALHPHDLDERIPGLADLHNQTLGDPQITIVIIDGDPDYTLSCFEGAEVSKVFPYWHEPAEPITPEDYAAFQSIRDQGLDGKEKEEALEAVIPDTKDRIVLNDHACHVTSTIVGQEHSPVFGIAPNCRVINMPQDAVIRGNYDDVMSPLNLARAIDLALELGANIIHCAFCRPTQTSEGEEILVQAIKKCQDNNVLIVSPTGNNSNESWCLPAVLPGTLAVGAAKVDGTPCHFSNWGGNNTKEGILAPGEEILGAQPCTEEPVRLTGTSMAAPVMTGISALLMSLQVQQGKPVDAEAVRTALLKTAIPCDPEVVEEPERCLRGFVNIPGAMKVLFGQ |  | approximately one third of the product was macrocyclized | 29% | 71% | 0% | approximately the rate of native protein | equal amounts of macrocyclized and linear products | reacted extremely slowly | 
PatGmac R589D K594D K598D (protein) GEDEIESAGVSASEVESSATKQKVALHPHDLDERIPGLADLHNQTLGDPQITIVIIDGDPDYTLSCFEGAEVSKVFPYWHEPAEPITPEDYAAFQSIDDQGLDGKEDEEALEAVIPDTKDRIVLNDHACHVTSTIVGQEHSPVFGIAPNCRVINMPQDAVIRGNYDDVMSPLNLARAIDLALELGANIIHCAFCRPTQTSEGEEILVQAIKKCQDNNVLIVSPTGNNSNESWCLPAVLPGTLAVGAAKVDGTPCHFSNWGGNNTKEGILAPGEEILGAQPCTEEPVRLTGTSMAAPVMTGISALLMSLQVQQGKPVDAEAVRTALLKTAIPCDPEVVEEPERCLRGFVNIPGAMKVLFGQ |  | only produced linear substrate | 0% | 6% | 94% | substantially slower | equal amounts of macrocyclized and linear products | reacted extremely slowly | 
PatGmac K598D (protein) GEDEIESAGVSASEVESSATKQKVALHPHDLDERIPGLADLHNQTLGDPQITIVIIDGDPDYTLSCFEGAEVSKVFPYWHEPAEPITPEDYAAFQSIRDQGLKGKEDEEALEAVIPDTKDRIVLNDHACHVTSTIVGQEHSPVFGIAPNCRVINMPQDAVIRGNYDDVMSPLNLARAIDLALELGANIIHCAFCRPTQTSEGEEILVQAIKKCQDNNVLIVSPTGNNSNESWCLPAVLPGTLAVGAAKVDGTPCHFSNWGGNNTKEGILAPGEEILGAQPCTEEPVRLTGTSMAAPVMTGISALLMSLQVQQGKPVDAEAVRTALLKTAIPCDPEVVEEPERCLRGFVNIPGAMKVLFGQ |  | only linear VGAGIGFP | 0% | 100% | 0% | approximately the rate of native protein |  | over an order of magnitude faster than wild-type PatGmac with […] | 8%
H618A: site-directed catalytic triad mutant of PatGmac (inactive mutant) (protein) GEDEIESAGVSASEVESSATKQKVALHPHDLDERIPGLADLHNQTLGDPQITIVIIDGDPDYTLSCFEGAEVSKVFPYWHEPAEPITPEDYAAFQSIRDQGLKGKEKEEALEAVIPDTKDRIVLNDAACHVTSTIVGQEHSPVFGIAPNCRVINMPQDAVIRGNYDDVMSPLNLARAIDLALELGANIIHCAFCRPTQTSEGEEILVQAIKKCQDNNVLIVSPTGNNSNESWCLPAVLPGTLAVGAAKVDGTPCHFSNWGGNNTKEGILAPGEEILGAQPCTEEPVRLTGTSMAAPVMTGISALLMSLQVQQGKPVDAEAVRTALLKTAIPCDPEVVEEPERCLRGFVNIPGAMKVLFGQ |  | no detectable reaction |  |  |  |  |  |  | 
